{
  "source": "patent US20240197828A1",
  "about": "“Chimeric molecule to treat sepsis and other inflammatory conditions” (THE FEINSTEIN INSTITUTES FOR MEDICAL RESEARCH, priority 2022, published 2024)",
  "key": {"RAW264.7 macrophages": {"tested_on": "RAW264.7 macrophages", "test": "Intracellular uptake of FITC-rmCIRP by macrophages (flow cytometry, confocal microscopy)", "type": "cell-based, mouse", "protocol": "FIG. 3. Effects of MOP peptides MOP-3, MOP-8 and MOP-14 on eCIRP. Flow cytometry experiment whereby RAW264.7 macrophages were treated for 1 hour according to respective group: PBS (volume-equivalent), FITC-rmCIRP (1 μg/mL), or a mixture of FITC-rmCIRP (1 μg/mL) with each respective peptide (10 μg/mL) after co-incubating for 30 minutes. Intracellular FITC-rmCIRP was analyzed by flow cytometry. Median fluorescence intensity (MFI) reported as percentage relative to PBS-treated RAW264.7 cells. Data from two independent experiments are expressed as mean±SEM and compared by one-way ANOVA and SNK test. *p<0.05 vs. PBS, #p<0.05 vs. eCIRP.\nComputational modeling was used to determine the likely domain of MFG-E8's binding to eCIRP. The known amino acid (AA) sequence of this domain was used to develop and test potential therapeutic peptides. An MFG-E8 derived oligopeptide, MOP3, was developed based on 15 AA from MFG-E8 discoidin 2 domain (mimicking MFG-E8's C-terminal) and tagged with the 3 AA, RGD, (mimicking MFG-E8's binding capacity for the integrin receptor at the N-terminal). Binding of MOP3 to CIRP was quantified using Surface Plasmon Resonance (SPR) analysis. Macrophages (RAW264.7 cells) were treated with FITC-recombinant mouse (rm)-CIRP or co-incubated MOP3 and FITC-rmCIRP with and without a. Br-integrin Ab. After 1 h, cells were fixed and analyzed for intracellular FITC-rmCIRP by flow cytometry. Macrophages were stimulated with rmCIRP or co-incubated mixture of MOP3 and rmCIRP. After 4 h, cell culture supernatants were analyzed for inflammatory cytokine, TNFα.\nMouse macrophage cell line, RAW264.7 cells were obtained from American Type Culture Collection (ATCC) and cultured in DMEM media with 10% FBS, 1% penicillin and streptomycin, and 1% glutamine. Cells were kept in 37° C. incubator under humidified conditions containing 5% CO2.\nrmCIRP was labeled using a FITC Conjugation Kit (Abcam, ab188285), and rmMFG-E8 was labeled using Alexa Fluor Conjugation Kit (Abcam, ab269821), both according to respective manufacturer's instructions.\nIn order to visualize cellular uptake, we initially utilized TRITC-BSA as an internal probe, as BSA is taken up into cells primarily by endocytosis and retained intracellularly after fixation (27, 28). For further visualization of intracellular localization, we utilized LAMP1 primary antibody (as it is distributed among endolysosomal organelles and serves as a marker for lysosomal compartments) (29), and utilized lysotracker in live cell experiments (as it allows for imaging of dynamics of lysosome vesicle movements) (30). […] Images were quantified and analyzed using Image J, FIJI.(31) Flow cytometry. […]"}, "[1]": {"tested_on": "murine peritoneal cavity (PerC) macrophages", "test": "eCIRP-induced cytokine release in peritoneal cavity macrophages", "type": "cell-based, mouse", "conditions": "WT PerC macrophages, eCIRP treatment", "protocol": "Murine peritoneal cavity (PerC) macrophages were isolated from adult, WT mice and MFG-E8“ ” mice. Briefly, mice were euthanized using CO2 asphyxiation. Peritoneal fluid and cells were isolated using peritoneal lavage by washing ice-cold Ca^+2 and Mg^+2 free Hank's Balanced Salt Solution (HBSS) with 2% fetal bovine serum (FBS, Solon, Ohio). Total PerC macrophages were isolated by centrifugation at 400 g for 10 minutes at 4° C. After centrifugation, the cell pellet was suspended in culture media containing RPMI 1640 (Invitrogen) supplemented with 25 mM HEPES, 2 mM glutamine, 10% FBS, penicillin (100 IU/mL) and streptomycin (100 IU/mL). PerC macrophages were allowed to adhere in 6-well plates for 4 hours in humidified incubator at 37 °C. […] Adhered PerC macrophages were then mechanically detached from the plate and counted. […]\nThe mouse macrophage cell culture supernatants were analyzed for cytokine levels using ELISA kits (BD Biosciences, CA). […] TNF-α and IL-6 levels were measured in cell supernatants by ELISA in accordance with respective manufacturers' instructions (BD Biosciences, CA). Blood was collected, centrifuged at 4,000 RPM for 10 minutes, and sera was separated and analyzed for cytokine levels using ELISA kits (BD Biosciences, CA). TNF-α and IL-6 levels in the serum were measured by ELISA in accordance with respective manufacturers' instructions."}},
  "data": [
    {"molecule": "milk fat globule-epidermal growth factor—factor VIII (protein, listed as Mus musculus) MQVSRVLAALCGMLLCASGLFAASGDFCDSSLCLNGGTCLTGQDNDIYCLCPEGFTGLVCNETERGPCSPNPCYNDAKCLVTLDTQRGDIFTEYICQCPVGYSGIHCETETNYYNLDGEYMFTTAVPNTAVPTPAPTPDLSNNLASRCSTQLGMEGGAIADSQISASSVYMGFMGLQRWGPELARLYRTGIVNAWTASNYDSKPWIQVNLLRKMRVSGVMTQGASRAGRAEYLKTFKVAYSLDGRKFEFIQDESGGDKEFLGNLDNNSLKVNMFNPTLEAQYIKLYPVSCHRGCTLRFELLGCELHGCSEPLGLKNNTIPDSQMSASSSYKTWNLRAFGWYPHLGRLDNQGKINAWTAQSNSAKEWLQVDLGTQRQVTGIITQGARDFGHIQYVASYKVAHSDDGVQWTVYEEQGSSKVFQGNLDNNSHKKNIFEKPFMARYVRVLPVSWHNRITLRLELLGC", "values": [
      {"measurement": "FITC-eCIRP uptake (confocal fluorescence microscopy)", "setting": "RAW264.7 macrophages; RAW264.7, 4 hours, vs FITC-eCIRP alone", "result": "marked increase of FITC-eCIRP uptake"},
      {"measurement": "intracellular FITC-rmCIRP uptake (flow cytometry)", "setting": "RAW264.7 macrophages; RAW264.7, FITC-rmCIRP 1 μg/mL co-incubated with test substance (peptide 10 μg/mL), 1 hour, vs FITC-rmCIRP alone", "result": "enhanced internalization of FITC-eCIRP"},
      {"measurement": "intracellular FITC-eCIRP with αvβ3-integrin neutralizing antibody (confocal fluorescence microscopy)", "setting": "RAW264.7 macrophages; RAW264.7, vs IgG isotype control", "result": "remarkably reduced"},
      {"measurement": "intracellular FITC-rmCIRP uptake with αvβ3-integrin blocking antibody (flow cytometry)", "setting": "RAW264.7 macrophages; RAW264.7, αvβ3-integrin antibody 0.5 μg/mL", "result": "significantly reduced"},
      {"measurement": "IL-6 levels in cell supernatants", "setting": "[1]", "result": "reduced levels"},
      {"measurement": "TNFα levels in cell supernatants", "setting": "[1]", "result": "reduced levels"}
    ]}
  ]
}
